The nature of this data set: soluble on expression in E. coli; label from the status in PepcDB or PDB records.
On to “MERREEQPGAAGAGAAPALDFTVENVEKALHQLYYDPNIENKNLAQKWLMQAQVSPQAWHFSWQLLQPDKVPEIQYFGASALHIKISRYWSDIPTDQYESLKAQLFTQITRFASGSKIVLTRLCVALASLALSMMPDAWPCAVADMVRLFQAEDSPVDGQGRCLALLELLTVLPEEFQTSRLPQYRKGLVRTSLAVECGAVFPLLEQLLQQPSSPSCVRQKVLKCFSSWVQLEVPLQDCEALIQAAFAALQDSELFDSSVEAIVNAISQPDAQRYVNTLLKLIPLVLGLQEQLRQAVQNGDMETSHGICRIAVALGENHSRALLDQVEHWQSFLALVNMIMFCTGIPGHYPVNETTSSLTLTFWYTLQDDILSFEAEKQAVYQQVYRPVYFQLVDVLLHKAQFPSDEEYGFWSSDEKEQFRIYRVDISDTLMYVYEMLGAELLSNLYDKLGRLLTSSEEPYSWQHTEALLYGFQSIAETIDVNYSDVVPGLIGLIPRISISNVQLADTVMFTIGALSEWLADHPVMINSVLPLVLHALGNPELSVSSVSTLKKICRECKYDLPPYAANIVAVSQDVLMKQIHKTSQCMWLMQALGFLLSALQVEEILKNLHSLISPYIQQLEKLAEEIPNPSNKLAIVHILGLLSNLFTTLDISHHEDDHEGPELRKLPVPQGPNPVVVVLQQVFQLIQKVLSKWLNDAQVVEAVCAIFEKSVKTLLDDFAPMVPQLCEMLGRMYSTIPQASALDLTRQLVHIFAHEPAHFPPIEALFLLVTSVTLTLFQQGPRDHPDIVDSFMQLLAQALKRKPDLFLCERLDVKAVFQCAVLALKFPEAPTVKASCGFFTELLPRCGEVESVGKVVQEDGRMLLIAVLEAIGGQASRSLMDCFADILFALNKHCFSLLSMWIKEALQPPGFPSARLSPEQKDTFSQQILRERVNKRRVKEMVKEFTLLCRGLHGTDYTADY”, for which the “soluble on expression in E. coli” value is “soluble”. Take “MKTPNAQEAEGQQTRAAAGRATGSANMTKKKVSQKKQRGRPSSQPRRNIVGCRISHGWKEGDEPITQWKGTVLDQVPINPSLYLVKYDGIDCVYGLELHRDERVLSLKILSDRVASSHISDANLANTIIGKAVEHMFEGEHGSKDEWRGMVLAQAPIMKAWFYITYEKDPVLYMYQLLDDYKEGDLRIMPESSESPPTEREPGGVVDGLIGKHVEYTKEDGSKRIGMVIHQVEAKPSVYFIKFDDDFHIYVYDLVKKS”: the “soluble on expression in E. coli” value is on record as “soluble”. As for “MTKSKIIEIGPLVPAFEEEKIVILFGPTATNELREISVIHEFEAAPQSALSKGNTLQIGDQVYIIEEVGTEANKNLEELGHISIYFRSGQNEVLPGAIVVSPEVFPTLAIGDTIQ”, the entry is “not soluble”.

Consider “MSLEIADLKVHFDIKEGKQWFWQPPKTLKAVDGVTLRLYEGETLGVVGESGCGKSTFARAIIGLVKATDGKVAWLGKDLLGMKADEWREVRSDIQMIFQDPLASLNPRMTIGEIIAEPLRTYHPKLSRQDVRDRVKAMMLKVGLLPNLINRYPHEFSGGQCQRIGIARALILEPKLIICDEPVSALDVSIQAQVVNLLQQLQREMGLSLIFIAHDLAVVKHISDRVLVMYLGHAVELGTYDEVYHNPLHPYTKALMLAVPIPDPDLERNKKIQLLEGELPSPINPPSEGHHHHHH”, for which the “soluble on expression in E. coli” value is “soluble”. As for “MTDRLSILVPIRVLEGESVPEGVPELLAHAHVVLLGYHVIPEQTAPGQARMQFEDRATERLDEYQEMFEDAGATVERRLVFTHNGQKTIDRMIAEHDCMAVLVPNATGPVEDVLVPVRGAIGVDRLARVVASVFGEMDADVTLYHVADEDTTDDDIQTLLGGLADRLAEFGMDPSTIETRIDRDQNPLDAIVDVSDGFDTVVMGETDPSLATFVFGMPADQVANRFLGPVFVAQRERPSADEDE”, the entry is “not soluble”; as for “MGSDKIHHHHHHMDAPALPARWKVSAPELIAETFSSRIWKVVRDDGSPAVVKALKPFDDVADELRGEHFLAWRRGEGAVRLLGRDGHSMLLEYAGETLLTQVLDEQGDNAATAIAAELMTKLFSPSQHPYPPELQPLTERYTSLFRKAATDRGAGHASIYVEAAAIAERLLDNPHDIRPLHGDLHHDNILHGPRGWLVIDPKGVLGNPGFDAANMFYNPLDRDDLCLDPERIAHMAEVFAKTLGESPAAILDHAIAYGCLSAAWHHEDDNAVEENRELSIAKAIRAMRANF”, “not soluble”. Consider “MEEDIVRLFYKGSEIILIGTSHISAESADLVRKTIQEENPDTICIEWDQKRYKKNIHPDEWDDTDIVKIIKNKQFPVFIFGVIYKLFQKKVSQDMNSLVGKEFVVAVDESKKLNIKFYLIDRDSSLTFKRAWRMLNFREKVKLPYAFGKIFEGAEETEEEVQNLLESENFEPVFEELKESYPNLWEVFVTERDDYLATKIQNTANGKTVAVLGKAHLKGVSDRLKNNQKSDLQKLEIIPPKK”, for which the “soluble on expression in E. coli” value is recorded as “not soluble”. As for “MGSDKIHHHHHHMAQVLWIIQIISKGLVRTLRFKAHILRMILLGSLGVAIHVSVVNAAVTDNSLPQESIPLVQGFIDAVKAHDRQAIADYMAYPIKRTNPIPAINTPEELLKRFDQVFDPEILETIAQSQVEADWQAMGWRGIMLGSGTIWMDFDGKITAVNYQTPAETKLKAELIANQKTGLHESVSQFVSPELAWQTAKFTIRVDNMGNSQYRYASWAKGKPLSEKPDLVLNQGKLVFDGSGGNHSFQFTSGPYLYVCDVIVLGTSDSPIGELVVFKHDRVLLREPAIKAE”, the entry is “not soluble”; as for “MGHHHHHHSHMANSAGSMANSAGSMFDGISLTEHQRQQMRDLMQQARHEQPPVNVSELETMHRLVTAENFDENAVRAQAEKMANEQIARQVEMAKVRNQMYRLLTPEQQAVLNEKHQQRMEQLRDVTQWQKSSSLKLLSSSNSRSQ”, “not soluble”; as for “MFTAKCAMQNIRNVAIVGSGQMGSGIAQVTASSGFNVMLADVNKKALDRAMKAISQSVTHLSKKQKGTDKEKSDFVTLTMSRIKTCNNVSTAVADADLIIEAAIENIDLKRGIFAQIEQSCKKDSILTTNTSSFLLEDVAKGLQDKTRFGGLHFFNPVPVMKLLEVIRSDDTSDETYATLIKFGTAVGKTTVACKDSPGFIVNRLLIPYFFEAARMYERGDASMTDIDEAMKLGAGHPMGPFELADYIGLDTVKFVMDGWAAKYPEVQLFEASPLVDKLVAEGKLGRKTGDGFYSYKK”, “not soluble”. On to “MAHHHHHHMIMKKLIENNVIKLNYENFLTKYKLNSGNEQKDLSDEELYEHFIINTFNYSKPLGCLPPNISNIKEYYLDGINIFEVINYVNISERMYKFENITEEDDKENEDDSKEIFSHSEPDEKHDCEIKSRKNNKNSKISNNNKKDGNNIKSNKYRRFYRFLLYDGKSFIYAYEQEYNEIFTYLESNKYIYPKIILYNKPLIRRGAILLKKNQVIILFKGCIVSGNDTEDNEIEDFPIISESNNINSGVHQNIHDDLYTTRNTYDNKNMTDDSHNLIRKFYYADKGMEKEEYKTYYENTNNCGVLSNTNRSNEYYSRSSMHNNNNYSFNEYAKHNYKYDQNHVKKNIEYYYNKDKNCYITSIDYNNNNNNNNNSINNSNNEYTGNNYNNNNKGNHYYYHNIHNNHMHDTHNSKNYIGSNRYNTDKASYNYYNNHYKNKQHYIDPQRNNYYTHGINHDDYSKENYLNAFEYKNHNSYKEPLRNYSNDHPRNSYNKNKYNIFNENKRNSSSKNNRNSSSKNNRNSSNKNNRNSSKEYFKRNSNKFDNAYDNTYHDNNTRINHHSDFSRKNNDGFYRNNDNNYNNETYVKNHFSNEAKYNAGYQRLSDNLENRNRMNCENNNNYYSTYGHSDYNVNYNNKNNRNIPLSNLNEKNNHIPSNNYYTENYLPEKEGNRNILTNQINNYSINSVNNNFEQINPSTCNYNKNNVFPYNKEDDKNKFVEMKNVEEEYHNDNQERARKNSENSKKLIDLTEGFFSSEFFHKSYECNDVNKNSDIIILDD”, for which the “soluble on expression in E. coli” value is on record as “soluble”. The same measure for “MPSIDIDEDTSVETTTMTETPTLDLNAKVEIINFINTFDVKGNCYLYHEGEEKLVSTLLRPDDRKRISLMKELEEARTIRQLHKTRLFKDHPFLKKQKRIILLPYSSISKSHMQTSHYSEREINRTKIINTFWKSKLELHYDAAEASILVCSFLAQNIDRNTHGLGISQSKIAIVLGMSLRRVSDTLNRLEQLGYVRRYTEKAKRGKLSLGTFIQVTENFSSQFLPPKKIVGESEEKQKQGSEHQPQDPPEKHYFQFLQSLNDLRLELKNFIVNSEEPIPPVVLQQIFKVL”: “not soluble”.

For “MGSDKIHHHHHHMTEQITEIDTLVVGAGQAGVAMSEHLTRLDIPHLVLEKQGIAQAWRSGRWDSLVANGPAWHDRFPGMVFPDCPPDSFVGKEQVADYFAAYARSFNAPIRTGVEVYSAERLAGRPGFRIDTSQGVIEAQRIVAATGPFQRPVIPAIAPQSPAIQQLHSAHYFNPQQLPEGGVLVIGAGSSGVQIADELQRAGRAVWLSVGAHDRPPRRYRQRDFCWWLGVLGMWDAAANAPGKEHVTIAVSGARGGHTVDFRQLAHQGVTLVGQTRGFDGDKALFHPDLAENIRRGDASYLALLDAADAWVARNGMDLPEEPSAREFLPDPACVTDPLLSLNLAEAGIGTIIWATGYTTDYRWLKVNAFDDAQRPQHHRGVSTEPGVYFLGLPWLSRRGSTFIWGVWHDAKYIADQIAIQRQYQRYQPSC”, the “soluble on expression in E. coli” value is listed as “not soluble”.

Consider “MKRSNTVRLVVSKEQHEVLKRLGIATAKCWNEVNWLRMKQYKEGKRVDFGITEKAVYEKYKSVLRVNAQQVARKNAEDWRSFFSLTREKKEGKLPSWFKPRPPGYWKDGRLIVIIRNDRYTVDERNRVVYLKDFNLSLKFKGRLKWHGKQGRLEIIYDEARKIWYAHIPVEVETEKVKEGIKASIDLGIVNLATVYVEDGSWYLFKGGSALSHYENYSKRITIVQKTLHRHRQRRSRRLKLLHEKRSRFLKHALNSMVRRIMEILREKNVGEVVVGYPKEIAKHHGNKLTVNFWNYSYIIKRLEDIGEELGIKVITVDEAYTSKTCSLCGEAHEDGRVKRGLFVCPRTRKAINADLNGAINILHIPESRGSEGNFHRGIGVIGLKTQPVTLSDLSKIKNHYNYSISDYTILHYIQPLEHHHHHH”, for which the “soluble on expression in E. coli” value was “soluble”.

Take “MGSDKIHHHHHHMTTDLEQQFEFLTEIERLREVERQNLLLDGSRVENSAEHSWHLALYALVFAPYAPSDVSITRVIEMLLLHDIVEIDVGDHPIDEPTDWEAVAQAEDRAQRRIFGLLPEAQGHRLQALWQEFEAAHTADARFAKSLDYCQPIFQTLCAVSPPADHLRVVRENLTTGRATSLRERFPEAYAAACSLIDGQTVSDPDFAARLAFLSEADRLKSVLRASRIASGTRYENSAEHSWHIMLYGWILAPHSLSEVDVSRVLKMLLLHDLVEIDAGDVPIHSNLDAAALRQIEETEKAAAERIFGLLPDAQAKDCLMIWQEFEAAQSADAVFAKSIDRVQPVLLNIATGGGSWVAYDVTLPQLETRVGVKIARGAPKVWDHVRALLLPWFTAQGRL”: the “soluble on expression in E. coli” value was “not soluble”. The same measure for “MITSPTNLNSLPIPPGDFGLPWLGETLNFLNDGDFGKKRQQQFGPIFKTRLFGKNVIFISGALANRFLFTKEQETFQATWPLSTRILLGPNALATQMGEIHRSRRKILYQAFLPRTLDSYLPKMDGIVQGYLEQWGKANEVIWYPQLRRMTFDVAATLFMGEKVSQNPQLFPWFETYIQGLFSLPIPLPNTLFGKSQRARALLLAELEKIIKARQQQPPSEEDALGILLAARDDNNQPLSLPELKDQILLLLFAGHETLTSALSSFCLLLGQHSDIRERVRQEQNKLQLSQELTAETLKKMPYLDQVLQEVLRLIPPVGGGFRELIQDCQFQGFHFPKGWLVSYQISQTHADPDLYPDPEKFDPERFTPDGSATHNPPFAHVPFGGGLRECLGKEFARLEMKLFATRLIQQFDWTLLPGQNLELVVTPSPRPKDNLRVKLHSLM”: “soluble”.

For the origin of these results see the DeepSol protein solubility set.
